Source: patent publication US20220174981A1, “PROLINE TOLERANT TRIPEPTIDYL PEPTIDASES AND USES THEREOF” (DuPont Nutrition Biosciences APS, priority 2014, published 2022)
Peptide text beside a SMILES is read from it.

T1: T. reesei proline tolerant tripeptidyl peptidase TRI083 (SEQ ID No. 1, SEQ ID No. 2 or SEQ ID No. 29) (Trichoderma reesei, UniProt G0RXE9)
T1 sequence (G0RXE9 198-612): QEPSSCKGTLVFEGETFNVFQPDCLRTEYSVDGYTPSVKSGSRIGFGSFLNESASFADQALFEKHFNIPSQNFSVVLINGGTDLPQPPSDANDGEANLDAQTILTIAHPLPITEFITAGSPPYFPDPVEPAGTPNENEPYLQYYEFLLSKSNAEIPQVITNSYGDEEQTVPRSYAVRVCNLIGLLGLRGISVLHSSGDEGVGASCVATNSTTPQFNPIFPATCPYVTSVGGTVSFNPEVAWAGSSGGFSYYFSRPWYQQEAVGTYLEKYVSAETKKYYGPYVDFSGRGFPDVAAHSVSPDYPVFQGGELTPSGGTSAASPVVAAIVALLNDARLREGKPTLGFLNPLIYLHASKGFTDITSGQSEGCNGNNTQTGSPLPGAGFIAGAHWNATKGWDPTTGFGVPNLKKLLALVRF


Legend:
Type in all cases: biochemical
[1] = target: T1, T. reesei proline tolerant tripeptidyl peptidase TRI083 (SEQ ID No. 1, SEQ ID No. 2 or SEQ ID No. 29); experiment: Product inhibition of proline tolerant tripeptidyl peptidase TRI083 with H-Ala-Ala-Ala-pNA as substrate; conditions: competitive inhibitor fit; substrate Ala-Ala-Ala-pNA (0-2000 nM); McIlvaine buffer pH 4.0, 50° C.; tripeptide at 3.6 mM, dipeptide at 18 mM
Protocol: For proline tolerant tripeptidyl peptidase the chromogenic peptide H-Ala-Ala-Ala-pNA was used. The assay was conducted as follows, 27.5 μL of appropriately diluted enzyme was added to 200 μl McIlvaine buffer (20 mM, pH 4.0). After incubation at 50° C. for 5 min, 12.5 μL of the chromogenic peptide solution (5 mg/mL dissolved in dimethyl sulfoxide (DMSO); Sigma-Aldrich, Denmark) were added to the reaction mixture. The reaction was terminated by adding 50 μL of 0.5 M trichloroacetic acid (TCA; Sigma-Aldrich, Denmark). After centrifugation (15,000×g, 5 min), 240 μL of the solution were transferred to a microtiter plate (MTP; Kisker-biotech, Germany) and the absorption was measured in an MTP reader (Molecular Devices, Denmark) at 405 nm. One katal of proteolytic activity was defined as the amount of enzyme required to release 1 mol of p-nitroaniline per second. […]
The inhibition experiments were set up as described in Example 14. […] The degree of pre-hydrolysis of H-Ala-Ala-Ala-OH was determined by gas chromatography (Husek, 1991; FEBS-Letters 280, 354-356). About 0.18 mg/mL alanine was measured, which corresponds to about 54% hydrolyses of the initially applied H-Ala-Ala-Ala-OH.
Subsequently, TRI083 was analyzed for product inhibition without inhibitor, with 1 mg/mL H-Ala-Ala-Ala-OH as well with the PepN pre-hydrolyzed H-Ala-Ala-Ala-OH (1 mg/mL).

[2] = tested on: whey protein (WPI, Lacprodan-9224); experiment: Hydrolysis of 20% whey protein (WPI) with Alphalase FP2 and TRI083, OPA degree of hydrolysis; conditions: FP2 0.0%
Protocol: For whey protein hydrolysis, Lacprodan-9224 (Arla Food Ingredients, Denmark) was employed. A 20% (w/w) WPI suspension was prepared in H2Od and adjusted to pH 4.0 with acetic acid (Sigma-Aldrich, Denmark). To prevent microbial growth, 0.0285% (w/w) NaN3 was added. A volume of 200 μl of the WPI suspension was transferred into each of the 96 wells of a microtiter plate (MTP; VWR, Denmark). Subsequently, 5 μl of each consecutively diluted peptidase, Alphalase® FP2 and proline tolerant tripeptidyl peptidase (3PP=TRI083; 0-8750 nkat H-Ala-Ala-Ala-pNA/mL activity in stock solution added), were added to each well, resulting in dosages as shown in Table 1. The MTP was sealed and placed in an EMS incubator/shaker (Thermo Scientific, Denmark) at 40° C. After 24 h of incubation and shaking at 400 rpm, the hydrolyses were stopped by addition of 20 μl of 2 M trichloroacetic acid (TCA; Sigma-Aldrich, Denmark). As a reference, a plain 20% WPI (w/w) suspension was used which was treated in the same manner as the WPI hydrolyses. Unhydrolysed, precipitated WPI was removed by filtration (0.22 μm). On the filtered WPI hydrolysate o-phthaldehyde (OPA) derivatization was conducted according to Nielsen et al. (2001) with minor modifications. A sample volume of 25 μl was transferred to a well and 175 μl of OPA-reagent, dissolved in phosphate buffer pH 11, was added subsequently. The measured absorptions at 340 nm in an MTP reader (Molecular Devices, Denmark) were transformed into the relative degree of hydrolysis (DH) in per cent.
A 20% (w/w) WPI suspension hydrolysed in 6 M HCl (Sigma-Aldrich, Denmark) at 100° C. for 24 h served as reference (100% DH).

[3] = tested on: H-Ala-Ala-Ala-pNA; experiment: Exopeptidase Broad-Specificity Assay (EBSA) with H-Ala-Ala-Ala-pNA; pH and temperature profile
Protocol: 10 μL of the chromogenic peptide solution (10 mM H-Ala-Ala-Ala-pNA dissolved in dimethyl sulfoxide (DMSO); MW=387.82; Bachem, Switzerland) were added to 130 μl Na-acetate (20 mM, adjusted to pH 4.0 with acetic acid) in a microtiter plate and heated for 5 minutes at 40° C. 10 μL of appropriately diluted enzyme was added and the absorption was measured in a MTP reader (Versa max, Molecular Devices, Denmark) at 405 nm. One katal of proteolytic activity was defined as the amount of enzyme required to release 1 mole of p-nitroaniline per second.
The chromogenic peptide H-Ala-Ala-Ala-pNA (MW=387.82; Bachem, Switzerland) was used to determine the activity of proline tolerant tripeptidyl peptidase in the samples produced as described above. The assay was conducted as follows, 10 μL of the chromogenic peptide solution (10 mM dissolved in dimethyl sulfoxide; DMSO) were added to 130 μl Na-acetate (20 mM, adjusted to pH 4.0 with acetic acid) in a microtiter plate and heated for 5 minutes at 40° C. 10 μL of appropriately diluted enzyme was added and the absorption was measured in an MTP reader (Versa max, Molecular Devices, Denmark) at 405 nm. One katal of proteolytic activity was defined as the amount of enzyme required to release 1 mole of p-nitroaniline per second.
The proline tolerant tripeptidyl peptidase assay described with H-Ala-Ala-Ala-pNA substrate above with modification of using the buffers 20 mM Na-glycine (pH 2.0, 2.5, 3.0, 3.5 and 4.0) or 20 mM Na-acetate buffer (pH 4.0, 4.5 and 5.5) was used to determine the pH profile of proline tolerant tripeptidyl peptidase TRI083 (FIG. 2) and TRI045 (FIG. 24)..
The proline tolerant tripeptidyl peptidase assay described above was used at temperatures 25, 50, 55, 60, 65, 70, 75, 80 and 85° C.
For proline tolerant tripeptidyl peptidase the chromogenic peptide H-Ala-Ala-Ala-pNA was used. The assay was conducted as follows, 27.5 μL of appropriately diluted enzyme was added to 200 μl McIlvaine buffer (20 mM, pH 4.0). After incubation at 50° C. for 5 min, 12.5 μL of the chromogenic peptide solution (5 mg/mL dissolved in dimethyl sulfoxide (DMSO); Sigma-Aldrich, Denmark) were added to the reaction mixture. The reaction was terminated by adding 50 μL of 0.5 M trichloroacetic acid (TCA; Sigma-Aldrich, Denmark). After centrifugation (15,000×g, 5 min), 240 μL of the solution were transferred to a microtiter plate (MTP; Kisker-biotech, Germany) and the absorption was measured in an MTP reader (Molecular Devices, Denmark) at 405 nm. One katal of proteolytic activity was defined as the amount of enzyme required to release 1 mol of p-nitroaniline per second.

[4] = tested on: sodium caseinate; experiment: 5% sodium caseinate hydrolysis with endopeptidase, TRI083 and PepN, serine equivalents; conditions: 17,500 nkat/mL TRI083

Molecule	Ki [1]	Degree of hydrolysis of 20% (w/w) WPI ([2]; TRI083 2,188 nkat/mL stock solution)	Degree of hydrolysis of 20% (w/w) WPI ([2]; TRI083 4,375 nkat/mL stock solution)	Degree of hydrolysis of 20% (w/w) WPI ([2]; TRI083 8,375 nkat/mL stock solution)	activity at 70° C. and higher temperatures [3]	Optimum pH ([3]; H-Ala-Ala-Ala-pNA, 20 mM Na-glycine pH 2.0-4.0 or Na-acetate pH 4.0-5.5)	optimum temperature ([3]; tested at 25-85° C.)	increase of SE [4]
C[C@H](N)C(=O)N[C@@H](C)C(=O)O [H-Ala-Ala-OH] (H-Ala-Ala-OH)	40 mM	–	–	–	–	–	–	–
C[C@H](N)C(=O)N[C@@H](C)C(=O)N[C@@H](C)C(=O)O [H-Ala-Ala-Ala-OH]	0.34 mM	–	–	–	–	–	–	–
TRI083: proline tolerant tripeptidyl peptidase (SEQ ID No. 1, SEQ ID No. 2 or SEQ ID No. 29), expressed in Trichoderma reesei (protein) QEPSSCKGTLVFEGETFNVFQPDCLRTEYSVDGYTPSVKSGSRIGFGSFLNESASFADQALFEKHFNIPSQNFSVVLINGGTDLPQPPSDANDGEANLDAQTILTIAHPLPITEFITAGSPPYFPDPVEPAGTPNENEPYLQYYEFLLSKSNAEIPQVITNSYGDEEQTVPRSYAVRVCNLIGLLGLRGISVLHSSGDEGVGASCVATNSTTPQFNPIFPATCPYVTSVGGTVSFNPEVAWAGSSGGFSYYFSRPWYQQEAVGTYLEKYVSAETKKYYGPYVDFSGRGFPDVAAHSVSPDYPVFQGGELTPSGGTSAASPVVAAIVALLNDARLREGKPTLGFLNPLIYLHASKGFTDITSGQSEGCNGNNTQTGSPLPGAGFIAGAHWNATKGWDPTTGFGVPNLKKLLALVRF	–	0.5%	−0.9%	1.4%	no activity	4.0	50 °C	18 mM
